Molecular target: mare1_human MAPRE1 (UniProt Q15691)
Sequence (Q15691 whole entry): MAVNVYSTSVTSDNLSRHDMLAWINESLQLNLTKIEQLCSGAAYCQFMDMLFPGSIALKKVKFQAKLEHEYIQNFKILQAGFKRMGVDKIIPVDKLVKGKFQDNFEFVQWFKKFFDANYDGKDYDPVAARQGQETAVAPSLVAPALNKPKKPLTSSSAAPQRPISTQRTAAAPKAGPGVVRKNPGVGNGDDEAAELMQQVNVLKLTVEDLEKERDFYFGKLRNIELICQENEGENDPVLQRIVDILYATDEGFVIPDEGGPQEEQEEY

Dystonin (Homo sapiens), Q03001 I7552N;P7553N
effect of a mutation on the interaction: decreasing interaction
